The source of these data is patent US20230279126A1 (published 2023).

T1: extracellular domain of mouse IL23R (mIL23R ECD) (mouse, UniProt Q8K4B4 24-374)
T1 construct: The immunogen was an ECD-human IgG1 hinge-Fc fusion
T1 sequence: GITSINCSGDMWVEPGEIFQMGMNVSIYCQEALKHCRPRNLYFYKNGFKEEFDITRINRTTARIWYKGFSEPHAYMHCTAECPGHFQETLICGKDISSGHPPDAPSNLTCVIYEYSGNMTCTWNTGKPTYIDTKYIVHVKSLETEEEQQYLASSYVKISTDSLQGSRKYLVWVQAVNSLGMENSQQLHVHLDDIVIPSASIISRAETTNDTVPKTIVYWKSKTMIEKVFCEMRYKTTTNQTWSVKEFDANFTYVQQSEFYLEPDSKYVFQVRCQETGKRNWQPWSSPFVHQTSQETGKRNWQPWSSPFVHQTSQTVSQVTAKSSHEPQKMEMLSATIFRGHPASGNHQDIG

B1: mIL23R VHH4 (VHH)
VHH: QVQLQESGGGSVQAGGSLRLSCAASGYTYSNNCMGWFRQAPGKDRERIANIYTGGGRTTYADSVKGRFTISQDSAKSTVYLQMNSLKPEDTAMYYCAAGSCGSARSEYSYWGQGTQVTVSS
notes: Phagemid clone with his-tag, periplasmic extract
B2: mIL23R VHH29 (VHH)
VHH: QVQLQESGGGLVQPGGSLRLSCAASGFTFSTSAMTWVRQAPGKGLDWVSGIDSGGTTVYADSVKGRFTISKDNAKNTLYLQMNSLKTEDTAVYYCATGLPWGNTWRTRGQGTQVTVSS
notes: as for B1
B3: mIL23R VHH20 (VHH)
VHH: B2 VHH with T31S, F67A, S70L
notes: as for B1
B4: mIL23R VHH35 (VHH)
VHH: B2 VHH with S21A, A23S, T31S, F67A, S70L
notes: as for B1
B5: mIL23R VHH41 (VHH)
VHH: B2 VHH with S21T
notes: as for B1
B6: mIL23R VHH37 (VHH)
VHH: B2 VHH with A24T, T31S, S32G, R108T
notes: as for B1
B7: mIL23R VHH14 (VHH)
VHH: B2 VHH with S30R, K71R, N73S, T97M
notes: as for B1
B8: mIL23R VHH33 (VHH)
VHH: B2 VHH with A23T, A24T, T31S, R108T
notes: as for B1
B9: mIL23R VHH38 (VHH)
VHH: B2 VHH with T104I
notes: as for B1
B10: mIL23R VHH32 (VHH)
VHH: B2 VHH with Q13R, T31R, K71R, N73S, T97I
notes: as for B1
B11: mIL23R VHH7 (VHH)
VHH: B2 VHH with T31R, K71R, N73S, T97I
notes: as for B1
B12: mIL23R VHH39 (VHH)
VHH: B2 VHH with T31R, K71R, N73S, S84G, T97I
notes: as for B1
B13: mIL23R VHH21 (VHH)
VHH: B2 VHH with A24T, T31S, R108T
notes: as for B1
B14: mIL23R VHH3 (VHH)
VHH: QVQLQESGGGSVQAGGSLRLSCTASVNTYCEYNMSWYRQAPGKEREFVSGVDSDGSTRYSESVKGRFTISQDNAKNTMYLQMNGLKPEDTAMYYCKTYVCTFCSGNSCYYEYKYYYEGQGTQVTVSS
notes: as for B1
B15: mIL23R VHH26 (VHH)
VHH: QVQLQESGGGSVQAGGSLRLSCAASGYTFCMAWFRQAPGKEREGVARFYTRDGYTYYSDSVKGRFTISQNNAKNTLYLQMNSLKSEDTAMYYCAADLTRCSSNKNDFRYWGQGTQVTVSS
notes: as for B1
B16: mIL23R VHH5 (VHH)
VHH: B15 VHH with T98A
notes: as for B1
B17: mIL23R VHH43 (VHH)
VHH: B15 VHH with N70D
notes: as for B1
B18: mIL23R VHH24 (VHH)
VHH: B15 VHH with A24V, D59G
notes: as for B1
B19: mIL23R VHH22 (VHH)
VHH: B15 VHH with G53S
notes: as for B1
B20: mIL23R VHH12 (VHH)
VHH: QVQLQESGGGSVQAGGSLRLSCAASGYTYSSCTMGWYRQAPGKERELVSMLISDGSTFYADSVKGRFTFSQENAKNTVYLQMNSLKPEDTAMYYCGCATLGSRTVWGQGTQVTVSS
notes: as for B1
B21: mIL23R VHH36 (VHH)
VHH: B20 VHH with Y27D, E46D, L51V, I52F, V105I
notes: as for B1
B22: mIL23R VHH27 (VHH)
VHH: B20 VHH with F69S
notes: as for B1
B23: mIL23R VHH11 (VHH)
VHH: B20 VHH with N76S
notes: as for B1
B24: mIL23R VHH25 (VHH)
VHH: B20 VHH with Y94F
notes: as for B1
B25: mIL23R VHH10 (VHH)
VHH: B20 VHH with Y27D, E46D, I52M, S53G, V105I
notes: as for B1
B26: mIL23R VHH1 (VHH)
VHH: B20 VHH with N73Y
notes: as for B1
B27: mIL23R VHH16 (VHH)
VHH: B20 VHH with Y27D, E46D, I52M, S53G, S84N, V105I
notes: as for B1
B28: mIL23R VHH8 (VHH)
VHH: B20 VHH with A23T, G26R, L51V, I52F, V105I
notes: as for B1
B29: mIL23R VHH15 (VHH)
VHH: B20 VHH with L51V, I52F, V105I
notes: as for B1
B30: mIL23R VHH6 (VHH)
VHH: QVQLQESGGGSVQAGGSLRLSCAASGYTSGNYWMGWFRQAPGKEREGVATLWTGGASTFYGDSVKGRFTISRDNFKNTLYLQMNSLKVEDTAMYYCAADPALRLGANILRPAEYKYWGQGTQVTVSS
notes: as for B1
B31: mIL23R VHH18 (VHH)
VHH: QVQLQESGGGLVQPGGSLRLSCAASGFTFRLTAMRWVRQAPGKGLEWVSGIDSRGSTIYADSVKGRFTISKDNAKNTLYLQLNSLKTEDTAMYYCAQGVYGDTYSGSQGTQVTVSS
notes: as for B1
B32: mIL23R VHH46 (VHH)
VHH: B31 VHH with T32S, N73D
notes: as for B1
B33: mIL23R VHH19 (VHH)
VHH: B31 VHH with T32S
notes: as for B1
B34: mIL23R VHH30 (VHH)
VHH: B31 VHH with Q108L
notes: as for B1
B35: mIL23R VHH13 (VHH)
VHH: B31 VHH with A24T, T32A
notes: as for B1
B36: mIL23R VHH23 (VHH)
VHH: B31 VHH with T28N, T32Y, L45V, R54G
notes: as for B1
B37: mIL23R VHH31 (VHH)
VHH: B31 VHH with K71R
notes: as for B1
B38: mIL23R VHH40 (VHH)
VHH: B31 VHH with T87S
notes: as for B1
B39: mIL23R VHH17 (VHH)
VHH: B31 VHH with L11S, P14A
notes: as for B1
B40: mIL23R VHH42 (VHH)
VHH: B31 VHH with R30S, L31N, T32Y
notes: as for B1
B41: mIL23R VHH2 (VHH)
VHH: B31 VHH with L11S, P14A, R19T, A23T, S25P, T32A
notes: as for B1
B42: mIL23R VHH34 (VHH)
VHH: B31 VHH with Y104H
notes: as for B1
B43: mIL23R VHH45 (VHH)
VHH: B31 VHH with T32S, K64E
notes: as for B1
B44: mIL23R VHH9 (VHH)
VHH: B31 VHH with A24T, L45V, R54A, L82M
notes: as for B1
B45: mIL23R VHH28 (VHH)
VHH: B31 VHH with K71R, T90A
notes: as for B1
B46: mIL23R VHH44 (VHH)
VHH: B31 VHH with T32S, L45F
notes: as for B1

Positions count from the first letter of the chain named.

The target of this experiment is T1, extracellular domain of mouse IL23R …. The experiment is described as follows: periplasmic extract ELISA (PE-ELISA) of phage clones, colorimetric. In outline:
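Camels were immunized in turn with fusion proteins joining the human or mouse receptor extracellular domain to a human IgG1 hinge and Fc, and their VHH domains were recovered. RNA from the blood was transcribed, and a VHH fragment of approximately 400 bp was cloned into a phagemid in E. coli, in frame with a his-tag. The resulting phage library was biopanned over multiple rounds against either the human or the mouse extracellular domain. Selective binding of single clones was read colorimetrically by periplasmic extract ELISA in 96-well plates.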
B1: the binding result was “binds”.
In the case of B2 it was “binds”; in that of B3, “binds”; in that of B4, “binds”.
Turning to B5, the binding result is “binds”.
In the case of B6 it was “binds”; in that of B7, “binds”.
On to B8, for which the binding result is given as “binds”.
Consider B9, for which the binding result was “binds”.
In the case of B10 it was “binds”.
Regarding B11, the binding result was “binds”.
The value for B12 was “binds”; that for B13 was “binds”; that for B14 was “binds”.
In the case of B15 it was “binds”; in that of B16, “binds”; in that of B17, “binds”.
The value for B18 was “binds”; that for B19 was “binds”; that for B20 was “binds”.
As for B21, the binding result was “binds”.
In the case of B22 it was “binds”; in that of B23, “binds”; in that of B24, “binds”.
On to B25, for which the binding result was “binds”.
In the case of B26, the binding result was “binds”.
For the molecule B27, the binding result is “binds”.
In the case of B28 it was “binds”; in that of B29, “binds”.
In the case of B30 it was “binds”; in that of B31, “binds”.
In the case of B32, the binding result is listed as “binds”.
The value for B33 was “binds”.
B34: the binding result is reported as “binds”.
The value for B35 was “binds”; that for B36 was “binds”; that for B37 was “binds”.
The value for B38 was “binds”; that for B39 was “binds”; that for B40 was “binds”.
Regarding B41, the binding result is “binds”.
Consider B42, for which the binding result is recorded as “binds”.
The value for B43 was “binds”.
In the case of B44 it was “binds”; in that of B45, “binds”.
In the case of B46 it was “binds”.
